From article PMC12222023 (Nature, 2024) come the findings set out here.

Test [1] addresses T1, His-tagged SIRT1(E230K), bacterially expressed (human, UniProt Q96EB6 1-747, E230K).
T1 sequence (looked up): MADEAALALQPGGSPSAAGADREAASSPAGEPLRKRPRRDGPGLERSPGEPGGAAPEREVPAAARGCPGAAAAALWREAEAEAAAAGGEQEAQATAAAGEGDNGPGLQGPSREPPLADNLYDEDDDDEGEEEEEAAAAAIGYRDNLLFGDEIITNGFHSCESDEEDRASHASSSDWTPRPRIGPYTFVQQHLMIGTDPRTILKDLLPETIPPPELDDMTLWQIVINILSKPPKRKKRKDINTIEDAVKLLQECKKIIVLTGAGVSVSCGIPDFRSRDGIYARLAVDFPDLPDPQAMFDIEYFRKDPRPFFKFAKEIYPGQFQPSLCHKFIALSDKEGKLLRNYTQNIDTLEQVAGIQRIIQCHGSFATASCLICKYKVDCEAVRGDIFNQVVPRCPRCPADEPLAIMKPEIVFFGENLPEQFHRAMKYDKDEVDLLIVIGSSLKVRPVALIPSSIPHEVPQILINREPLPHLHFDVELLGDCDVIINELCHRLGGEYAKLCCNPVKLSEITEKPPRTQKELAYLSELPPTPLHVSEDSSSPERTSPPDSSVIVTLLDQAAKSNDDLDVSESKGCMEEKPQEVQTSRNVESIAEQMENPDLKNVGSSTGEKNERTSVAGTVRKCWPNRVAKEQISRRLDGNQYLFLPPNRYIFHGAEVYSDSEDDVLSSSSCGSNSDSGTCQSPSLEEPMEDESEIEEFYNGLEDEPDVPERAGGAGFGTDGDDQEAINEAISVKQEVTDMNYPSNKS
The test is described as follows: SEC. A general note: Size exclusion chromatography separates by hydrodynamic size, large species first.

The target in test [2] is T2, His-tagged SIRT1, bacterially expressed (human, UniProt Q96EB6 1-747).
T2 sequence (looked up): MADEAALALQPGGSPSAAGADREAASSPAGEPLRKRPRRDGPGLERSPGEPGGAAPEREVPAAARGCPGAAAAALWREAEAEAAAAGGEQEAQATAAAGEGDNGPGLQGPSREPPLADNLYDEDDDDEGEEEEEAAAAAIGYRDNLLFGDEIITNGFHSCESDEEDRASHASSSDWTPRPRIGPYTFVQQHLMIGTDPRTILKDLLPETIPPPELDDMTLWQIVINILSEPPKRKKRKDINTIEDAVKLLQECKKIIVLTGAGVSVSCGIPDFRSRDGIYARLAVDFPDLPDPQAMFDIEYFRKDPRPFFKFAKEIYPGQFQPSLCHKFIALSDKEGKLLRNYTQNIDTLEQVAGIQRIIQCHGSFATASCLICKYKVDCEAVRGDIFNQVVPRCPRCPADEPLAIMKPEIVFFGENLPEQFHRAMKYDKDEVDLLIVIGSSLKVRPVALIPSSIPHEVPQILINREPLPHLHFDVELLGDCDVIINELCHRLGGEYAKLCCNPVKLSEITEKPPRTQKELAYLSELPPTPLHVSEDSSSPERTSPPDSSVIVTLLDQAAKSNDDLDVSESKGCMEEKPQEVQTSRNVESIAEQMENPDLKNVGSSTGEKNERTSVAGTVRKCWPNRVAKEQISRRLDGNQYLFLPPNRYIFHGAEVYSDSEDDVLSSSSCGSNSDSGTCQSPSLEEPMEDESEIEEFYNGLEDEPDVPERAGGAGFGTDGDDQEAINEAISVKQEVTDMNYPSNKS
Put plainly: SEC.

B1: His-tagged TULP3, bacterially expressed (natural protein, human, UniProt O75386 1-442, looked up)
chain: MEASRCRLSPSGDSVFHEEMMKMRQAKLDYQRLLLEKRQRKKRLEPFMVQPNPEARLRRAKPRASDEQTPLVNCHTPHSNVILHGIDGPAAVLKPDEVHAPSVSSSVVEEDAENTVDTASKPGLQERLQKHDISESVNFDEETDGISQSACLERPNSASSQNSTDTGTSGSATAAQPADNLLGDIDDLEDFVYSPAPQGVTVRCRIIRDKRGMDRGLFPTYYMYLEKEENQKIFLLAARKRKKSKTANYLISIDPVDLSREGESYVGKLRSNLMGTKFTVYDRGICPMKGRGLVGAAHTRQELAAISYETNVLGFKGPRKMSVIIPGMTLNHKQIPYQPQNNHDSLLSRWQNRTMENLVELHNKAPVWNSDTQSYVLNFRGRVTQASVKNFQIVHKNDPDYIVMQFGRVADDVFTLDYNYPLCAVQAFGIGLSSFDSKLACE
For the molecule B1, the binding result in test [1] was “binds”.

B2: His-tagged TULP3(4G), bacterially expressed (natural protein, human, UniProt O75386 1-442, looked up)
chain: MEASRCRLSPSGDSVFHEEMMKMRQAKLDYQRLLLEKRQRKKRLEPFMVQPNPEARLRRAKPRASDEQTPLVNCHTPHSNVILHGIDGPAAVLKPDEVHAPSVSSSVVEEDAENTVDTASKPGLQERLQKHDISESVNFDEETDGISQSACLERPNSASSQNSTDTGTSGSATAAQPADNLLGDIDDLEDFVGSGAPQGVTVRCRIIRDKRGMDRGLFPTYYMYLEKEENQKIFLLAARKRKKSKTANYLISIDPVDLSREGESYVGKLRSNLMGTKFTVYDRGICPMKGRGLVGAAHTRQELAAISYETNVLGFKGPRKMSVIIPGMTLNHGQIGYQPQNNHDSLLSRWQNRTMENLVELHNKAPVWNSDTQSYVLNFRGRVTQASVKNFQIVHKNDPDYIVMQFGRVADDVFTLDYNYPLCAVQAFGIGLSSFDSKLACE
For the molecule B2, the binding result in test [2] was “binds”.
